Data reported in publication PMC5626548.

Experiments:
[1] = molecular target: full-length BICD2 (Bicaudal D2), wild type (mouse) (UniProt Q921C5); experiment: pull-down
[2] = molecular target: full-length BICD2 F739I (mouse) (UniProt Q921C5); experiment: pull-down
[3] = molecular target: full-length BICD2 I189F (mouse) (UniProt Q921C5); experiment: pull-down
[4] = molecular target: full-length BICD2 N188T (mouse) (UniProt Q921C5); experiment: pull-down
[5] = molecular target: full-length BICD2 S107L (mouse) (UniProt Q921C5); experiment: pull-down
[6] = molecular target: Rab6a^GTP (Rab6a–Q72L, aa 8–195, KCK motif) linked to liposomes (mouse) (UniProt P35279); experiment: fluorescence intensity of BICD2–GFP on liposomes

Substance | fold increase of the pull-down at the highest Rab6a^GTP concentration [1] [fold] | ratio of band intensity, mutant to WT BICD2 (lysate only) [2] | ratio of band intensity, mutant to WT BICD2 (lysate only) [3] | ratio of band intensity, mutant to WT BICD2 (lysate only) [4] | ratio of band intensity, mutant to WT BICD2 (lysate only) [5] | BICD2 molecules per Rab6a^GTP liposome (molecules per liposome) [6]
dynactin, endogenous in porcine brain lysate (from UniProt A0A287B8J2 1-1281) (complex) | 10 | 3.65 | 1.88 | 3.86 | 2.88 | –
cytoplasmic dynein, endogenous in porcine brain lysate (complex) | – | 1.95 | 1.61 | 2.24 | 2.44 | –
full-length BICD2 (Bicaudal D2), wild type (from UniProt Q921C5 1-820) (natural protein) | – | – | – | – | – | 6.01
